Several values for one entry are separate records, joined by “and”; a condition that tells them apart may be missing. Identical values can stand only once.
Assays:
[1] = target: T1, NDP52-FL (full-length NDP52/CALCOCO2), Q13137; experiment: SEC-MALS; 100 ul at 1 mg/ml (NDP52-FL, CoCoA) or 5 mg/ml (NNDP52, CNDP52, ZFs); Superdex 200 (30 x 1 cm); 50 mM Tris pH 7.5, 150 mM NaCl, 1 mM DTT; room temperature; conditions: remark: other sources report otherwise
T1 chain: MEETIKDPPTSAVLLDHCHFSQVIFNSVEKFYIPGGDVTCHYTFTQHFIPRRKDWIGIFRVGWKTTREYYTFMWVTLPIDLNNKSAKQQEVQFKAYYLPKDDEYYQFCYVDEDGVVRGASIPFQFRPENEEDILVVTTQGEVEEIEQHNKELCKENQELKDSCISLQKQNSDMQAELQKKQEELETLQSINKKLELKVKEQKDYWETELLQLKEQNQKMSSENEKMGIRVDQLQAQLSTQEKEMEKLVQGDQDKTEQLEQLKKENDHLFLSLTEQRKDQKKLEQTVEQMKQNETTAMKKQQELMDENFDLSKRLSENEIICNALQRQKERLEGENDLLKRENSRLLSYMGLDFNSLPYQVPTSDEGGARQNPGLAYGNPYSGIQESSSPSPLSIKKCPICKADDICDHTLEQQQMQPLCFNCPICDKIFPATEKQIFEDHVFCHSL

[2] = target: T1, NDP52-FL (full-length NDP52/CALCOCO2), …; experiment: mass photometry; NDP52-FL alone, 50 mM Tris-HCl pH 7.5, 150 mM NaCl, OneMP mass photometer; results say 100 nM, methods say diluted to 10 nM; conditions: remark: other sources report otherwise
[3] = target: T1, NDP52-FL (full-length NDP52/CALCOCO2), …; experiment: MST; RED-tris-NTA labelled protein at 50 nM, unlabelled protein of the same construct titrated from 10 uM (16-step serial dilution), PBS, 15 min at room temperature; Monolith NT.115; oligomerisation, step of the constant not told; conditions: remark: other sources report otherwise
[4] = target: T1, NDP52-FL (full-length NDP52/CALCOCO2), …; experiment: AFM imaging; purified protein adsorbed on mica (poly-L-lysine), imaged in liquid, PeakForce Tapping; monomers and oligomers counted by hand; conditions: remark: other sources report otherwise
[5] = target: the molecule itself; experiment: MST; RED-tris-NTA labelled protein at 50 nM, unlabelled protein of the same construct titrated from 10 uM (16-step serial dilution), PBS, 15 min at room temperature; Monolith NT.115; oligomerisation, step of the constant not told
[6] = target: T2, NNDP52 (N-terminal truncated region of NDP52, amino acid residues 1-190) (UniProt Q13137 1-190); experiment: MST
T2 chain: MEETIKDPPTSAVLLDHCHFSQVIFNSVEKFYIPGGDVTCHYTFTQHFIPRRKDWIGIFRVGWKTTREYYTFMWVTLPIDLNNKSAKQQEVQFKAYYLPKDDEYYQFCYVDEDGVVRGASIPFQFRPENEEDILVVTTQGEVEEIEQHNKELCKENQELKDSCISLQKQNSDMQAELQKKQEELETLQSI

[7] = target: the molecule itself; experiment: SEC-MALS; 100 ul at 1 mg/ml (NDP52-FL, CoCoA) or 5 mg/ml (NNDP52, CNDP52, ZFs); Superdex 200 (30 x 1 cm); 50 mM Tris pH 7.5, 150 mM NaCl, 1 mM DTT; room temperature
[8] = target: the molecule itself; experiment: AFM imaging; purified protein adsorbed on mica (poly-L-lysine), imaged in liquid, PeakForce Tapping; monomers and oligomers counted by hand
MST = target: the molecule itself; experiment: MST
NDP52-FL [9] = target: T3, NDP52-FL (Human, UniProt Q13137 1-446); experiment: fluorescence titration; Fluorescence: 100 nM DNA, 50 mM Tris-HCl pH 7.5, 150 mM NaCl, 1 mM DTT; EMSA: 50 mM Tris-HCl pH 7.5, 50 mM NaCl, 3 mM MgCl2, 5 min; temperature not stated; conditions: protein: recombinant, tags: His-tag (pET151), chain copies: 2, blunt
T3 sequence: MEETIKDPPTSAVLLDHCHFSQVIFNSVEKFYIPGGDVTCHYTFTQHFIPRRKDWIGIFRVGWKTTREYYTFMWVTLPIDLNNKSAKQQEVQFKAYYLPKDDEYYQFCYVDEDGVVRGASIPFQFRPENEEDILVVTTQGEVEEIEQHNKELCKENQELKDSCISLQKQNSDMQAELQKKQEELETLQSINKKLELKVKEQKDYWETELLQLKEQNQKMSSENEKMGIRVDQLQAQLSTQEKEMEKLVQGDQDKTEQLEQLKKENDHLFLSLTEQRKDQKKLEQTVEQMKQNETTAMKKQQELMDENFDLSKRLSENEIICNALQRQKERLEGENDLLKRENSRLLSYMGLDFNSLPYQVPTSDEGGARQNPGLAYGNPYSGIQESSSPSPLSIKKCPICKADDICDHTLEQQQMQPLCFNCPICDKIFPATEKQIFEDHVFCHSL

CoCoA = target: T4, CoCoA (Human, UniProt Q9P1Z2 1-691); experiment: fluorescence titration; high affinity; Fluorescence: 100 nM DNA, 50 mM Tris-HCl pH 7.5, 150 mM NaCl, 1 mM DTT; EMSA: 50 mM Tris-HCl pH 7.5, 50 mM NaCl, 3 mM MgCl2, 5 min; temperature not stated; conditions: protein: recombinant, tags: His-tag (pET151), chain copies: 2, blunt
T4 sequence: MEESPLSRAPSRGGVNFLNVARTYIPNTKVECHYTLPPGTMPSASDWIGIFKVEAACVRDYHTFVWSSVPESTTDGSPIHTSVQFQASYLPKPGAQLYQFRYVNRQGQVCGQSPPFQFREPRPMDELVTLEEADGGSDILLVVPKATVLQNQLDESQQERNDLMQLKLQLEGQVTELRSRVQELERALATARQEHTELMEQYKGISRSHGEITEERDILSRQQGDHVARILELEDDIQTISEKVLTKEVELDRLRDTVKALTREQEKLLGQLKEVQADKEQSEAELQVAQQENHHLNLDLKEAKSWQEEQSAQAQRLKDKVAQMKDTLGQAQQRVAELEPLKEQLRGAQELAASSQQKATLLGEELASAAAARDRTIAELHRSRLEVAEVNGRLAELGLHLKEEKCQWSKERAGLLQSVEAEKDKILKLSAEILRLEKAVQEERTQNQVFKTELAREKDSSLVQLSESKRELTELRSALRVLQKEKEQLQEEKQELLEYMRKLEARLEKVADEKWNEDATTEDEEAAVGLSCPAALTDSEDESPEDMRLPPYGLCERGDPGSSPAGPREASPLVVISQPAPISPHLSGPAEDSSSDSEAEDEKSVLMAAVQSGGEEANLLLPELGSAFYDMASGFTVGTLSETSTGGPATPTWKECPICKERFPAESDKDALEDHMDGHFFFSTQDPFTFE

NDP52-FL [10] = target: T3, NDP52-FL; experiment: fluorescence titration, competition; with and without ss40 competitor; Fluorescence: 100 nM DNA, 50 mM Tris-HCl pH 7.5, 150 mM NaCl, 1 mM DTT; EMSA: 50 mM Tris-HCl pH 7.5, 50 mM NaCl, 3 mM MgCl2, 5 min; temperature not stated; conditions: protein: recombinant; tags: His-tag (pET151); chain copies: 2; label: 3' FAM (called FITC in Methods) on strand 1 for fluorescence; blunt
[11] = label: 3' FAM (called FITC in Methods) on strand 1 for fluorescence
[12] = label: 3' FAM (called FITC in Methods) on strand 1

B1: NDP52-FL (full-length NDP52/CALCOCO2), Q13137 1-446 (natural protein)
chain: MEETIKDPPTSAVLLDHCHFSQVIFNSVEKFYIPGGDVTCHYTFTQHFIPRRKDWIGIFRVGWKTTREYYTFMWVTLPIDLNNKSAKQQEVQFKAYYLPKDDEYYQFCYVDEDGVVRGASIPFQFRPENEEDILVVTTQGEVEEIEQHNKELCKENQELKDSCISLQKQNSDMQAELQKKQEELETLQSINKKLELKVKEQKDYWETELLQLKEQNQKMSSENEKMGIRVDQLQAQLSTQEKEMEKLVQGDQDKTEQLEQLKKENDHLFLSLTEQRKDQKKLEQTVEQMKQNETTAMKKQQELMDENFDLSKRLSENEIICNALQRQKERLEGENDLLKRENSRLLSYMGLDFNSLPYQVPTSDEGGARQNPGLAYGNPYSGIQESSSPSPLSIKKCPICKADDICDHTLEQQQMQPLCFNCPICDKIFPATEKQIFEDHVFCHSL
With B1 the stoichiometry N [1] was 2 and 3 and 4, the stoichiometry N [2] was 2 and 3 and the Kd [3] was 210 nM. It also gave a percent of molecules in an oligomeric state [4] of 15% and a stoichiometry N [4] of 2.

B2: CNDP52 (C-terminal region of NDP52, amino acid residues 365-446) (domain or fragment, UniProt Q13137 365-446, looked up)
chain: EGGARQNPGLAYGNPYSGIQESSSPSPLSIKKCPICKADDICDHTLEQQQMQPLCFNCPICDKIFPATEKQIFEDHVFCHSL
notes: NDP52/CALCOCO2, a section of the coiled-coil and both zinc finger domains, amino acid residues 365-446; source: E. coli BL21 DE3, purified (HisTrap FF, Superdex 200 SEC)
In the case of B2, the Kd [5] is reported as 50 ± 6 nM, the Kd [6] is reported as 110 nM and the “stoichiometry N” value [7] is reported as 3. For the same binder, the “stoichiometry N” value [8] was 2.

B3: NNDP52 (N-terminal truncated region of NDP52, amino acid residues 1-190) (domain or fragment, UniProt Q13137 1-190, looked up)
chain: MEETIKDPPTSAVLLDHCHFSQVIFNSVEKFYIPGGDVTCHYTFTQHFIPRRKDWIGIFRVGWKTTREYYTFMWVTLPIDLNNKSAKQQEVQFKAYYLPKDDEYYQFCYVDEDGVVRGASIPFQFRPENEEDILVVTTQGEVEEIEQHNKELCKENQELKDSCISLQKQNSDMQAELQKKQEELETLQSI
notes: NDP52/CALCOCO2, SKICH domain and part of the coiled-coil region, amino acid residues 1-190; also called N-terminal region of NDP52; source: E. coli BL21 DE3, purified (HisTrap FF, Superdex 200 SEC)
With B3 the Kd (MST) was 170 nM and the “stoichiometry N” value [7] was 2.

B4: ZFs (the two zinc finger domains of NDP52, amino acid residues 380-446) (domain or fragment, UniProt Q13137 380-446, looked up)
chain: YSGIQESSSPSPLSIKKCPICKADDICDHTLEQQQMQPLCFNCPICDKIFPATEKQIFEDHVFCHSL
notes: NDP52/CALCOCO2, zinc finger domains ZF1 and ZF2, amino acid residues 380-446; also called ZFs domain; source: E. coli BL21 DE3, purified (HisTrap FF, Superdex 200 SEC)
B4 was tested, and the Kd [5] was 180 ± 17 nM and the “stoichiometry N” value [7] was 2 and 3.

B5: CoCoA (recombinant) (natural protein, UniProt Q9P1Z2 1-691, looked up)
chain: MEESPLSRAPSRGGVNFLNVARTYIPNTKVECHYTLPPGTMPSASDWIGIFKVEAACVRDYHTFVWSSVPESTTDGSPIHTSVQFQASYLPKPGAQLYQFRYVNRQGQVCGQSPPFQFREPRPMDELVTLEEADGGSDILLVVPKATVLQNQLDESQQERNDLMQLKLQLEGQVTELRSRVQELERALATARQEHTELMEQYKGISRSHGEITEERDILSRQQGDHVARILELEDDIQTISEKVLTKEVELDRLRDTVKALTREQEKLLGQLKEVQADKEQSEAELQVAQQENHHLNLDLKEAKSWQEEQSAQAQRLKDKVAQMKDTLGQAQQRVAELEPLKEQLRGAQELAASSQQKATLLGEELASAAAARDRTIAELHRSRLEVAEVNGRLAELGLHLKEEKCQWSKERAGLLQSVEAEKDKILKLSAEILRLEKAVQEERTQNQVFKTELAREKDSSLVQLSESKRELTELRSALRVLQKEKEQLQEEKQELLEYMRKLEARLEKVADEKWNEDATTEDEEAAVGLSCPAALTDSEDESPEDMRLPPYGLCERGDPGSSPAGPREASPLVVISQPAPISPHLSGPAEDSSSDSEAEDEKSVLMAAVQSGGEEANLLLPELGSAFYDMASGFTVGTLSETSTGGPATPTWKECPICKERFPAESDKDALEDHMDGHFFFSTQDPFTFE
notes: CoCoA, member of the CALCOCO family, recombinant; source: E. coli BL21 DE3, purified (HisTrap FF, Superdex 200 SEC)
B5 was tested, and the Kd [5] was 85 nM and the “stoichiometry N” value [7] was 2.

B6: ds40 (dsDNA)
DNA 1: TTAGTTGTTCGTAGTGCTCGTCTGGCTCTGGATTACCCGC
DNA 2: GCGGGTAATCCAGAGCCAGACGAGCACTACGAACAACTAA
With B6 the Kd (NDP52-FL [9]; [11]) was less than 100 nM, the binding result (CoCoA; [11]) was “binds” and the Kd (NDP52-FL [10]) was less than 100 nM.

B7: ds15 (dsDNA)
DNA 1: TTAGTTGTTCTCTGG
DNA 2: CCAGAGAACAACTAA
With B7 the Kd (NDP52-FL [9]; [12]) was less than 100 nM and the binding result (CoCoA; [12]) was “binds”.

Source: paper PMC10195817, “Autophagy receptor NDP52 alters DNA conformation to modulate RNA polymerase II transcription” (Nature Communications, 2022)
